In article PMC2951910, “Signal Transduction Protein Array Analysis Links LRRK2 to Ste20 Kinases and PKC Zeta That Modulate Neuronal Plasticity” (PLoS ONE, 2010):

B1: Protein kinase C, zeta (PRKCZ), arrayed (enzyme, human, UniProt Q05513 1-592, looked up)
chain: MPSRTGPKMEGSGGRVRLKAHYGGDIFITSVDAATTFEELCEEVRDMCRLHQQHPLTLKWVDSEGDPCTVSSQMELEEAFRLARQCRDEGLIIHVFPSTPEQPGLPCPGEDKSIYRRGARRWRKLYRANGHLFQAKRFNRRAYCGQCSERIWGLARQGYRCINCKLLVHKRCHGLVPLTCRKHMDSVMPSQEPPVDDKNEDADLPSEETDGIAYISSSRKHDSIKDDSEDLKPVIDGMDGIKISQGLGLQDFDLIRVIGRGSYAKVLLVRLKKNDQIYAMKVVKKELVHDDEDIDWVQTEKHVFEQASSNPFLVGLHSCFQTTSRLFLVIEYVNGGDLMFHMQRQRKLPEEHARFYAAEICIALNFLHERGIIYRDLKLDNVLLDADGHIKLTDYGMCKEGLGPGDTTSTFCGTPNYIAPEILRGEEYGFSVDWWALGVLMFEMMAGRSPFDIITDNPDMNTEDYLFQVILEKPIRIPRFLSVKASHVLKGFLNKDPKERLGCRPQTGFSDIKSHAFFRSIDWDLLEKKQALPPFQPQITDDYGLDNFDTQFTSEPVQLTPDDEDAIKRIDQSEFEGFEYINPLLLSTEESV
modifications: biotin on the biotin-carboxyl carrier protein tag
notes: protein kinase C zeta (PRKCZ), human, full length, spotted on the array; Held on streptavidin-coated glass slides by the biotinylated tag; also called PKC zeta; source: bought: Sigma Panorama Human Protein Function Array - Signal Transduction; expressed in insect cells
B2: TNF receptor-associated factor 2, transcript variant 1 (TRAF2), arrayed (natural protein, human, UniProt Q12933 1-501, looked up)
chain: MAAASVTPPGSLELLQPGFSKTLLGTKLEAKYLCSACRNVLRRPFQAQCGHRYCSFCLASILSSGPQNCAACVHEGIYEEGISILESSSAFPDNAARREVESLPAVCPSDGCTWKGTLKEYESCHEGRCPLMLTECPACKGLVRLGEKERHLEHECPERSLSCRHCRAPCCGADVKAHHEVCPKFPLTCDGCGKKKIPREKFQDHVKTCGKCRVPCRFHAIGCLETVEGEKQQEHEVQWLREHLAMLLSSVLEAKPLLGDQSHAGSELLQRCESLEKKTATFENIVCVLNREVERVAMTAEACSRQHRLDQDKIEALSSKVQQLERSIGLKDLAMADLEQKVLEMEASTYDGVFIWKISDFARKRQEAVAGRIPAIFSPAFYTSRYGYKMCLRIYLNGDGTGRGTHLSLFFVVMKGPNDALLRWPFNQKVTLMLLDQNNREHVIDAFRPDVTSSSFQRPVNDMNIASGCPLFCPVSKMEAKNSYVRDDAIFIKAIVDLTGL
modifications: biotin on the biotin-carboxyl carrier protein tag
notes: TNF receptor-associated factor 2 (TRAF2), human, full length, spotted on the array; Held on streptavidin-coated glass slides by the biotinylated tag; also called tumor necrosis factor receptor-associated factor 2; source: bought: Sigma Panorama Human Protein Function Array - Signal Transduction; expressed in insect cells
B3: Serine/threonine kinase 25 (STE20 homolog, yeast) (STK25), arrayed (enzyme)
chain: not shown
modifications: biotin on the biotin-carboxyl carrier protein tag
notes: serine/threonine kinase 25 (STK25), human, full length, spotted on the array; Held on streptavidin-coated glass slides by the biotinylated tag; The array was pre-incubated with 100 uM cold ATP in the substrate arrays; source: bought: Sigma Panorama Human Protein Function Array - Signal Transduction; expressed in insect cells

Assays:
[1] = target: T1, GST-tagged LRRK2(G2019S) (amino acids 970-2527) (human, UniProt Q5S007 970-2527, G2019S, autophosphorylated (10 uM cold ATP, 1 h, 30 C) before the binding arrays; sites not stated); experiment: peptide or protein array; BCCP-tagged full-length human proteins held on streptavidin-coated slides; overlaid with autophosphorylated GST-LRRK2(G2019S) (970-2527) or recombinant GST with cold ATP for 1 h at 30 C; washed in buffer with 0.5% SDS; detected with an Alexa 488-conjugated anti-GST antibody; conditions: both partners purified
T1 construct: leucine-rich repeat kinase 2 (LRRK2), human, amino acids 970-2527, with the Parkinson's disease-linked mutation G2019S; In the 33P arrays the kinase was not autophosphorylated beforehand, but ATP was present during the incubation; also called recombinant LRRK2(G2019S); leucine-rich repeat kinase 2; source: bought: Invitrogen; not shown: GST, N-terminal, kept

[2] = target: T2, kinase-inactive GST-tagged LRRK2(D1994A) (970-2527) (human, UniProt Q5S007 970-2527, D1994A); experiment: peptide or protein array; BCCP-tagged full-length human proteins held on streptavidin-coated slides, pre-incubated with 100 uM cold ATP; overlaid with 130 nM GST-LRRK2 (G2019S or D1994A) with 10 uM ATP and [gamma-33P]ATP for 1 h at 30 C; washed in 0.5% SDS; radioactive signal on the spots read on phosphoscreens; buffer only as control; conditions: both partners purified
T2 construct: also called kinase-dead LRRK2(D1994A); source: bought: Invitrogen
T2 sequence (Q5S007 970-2527 D1994A): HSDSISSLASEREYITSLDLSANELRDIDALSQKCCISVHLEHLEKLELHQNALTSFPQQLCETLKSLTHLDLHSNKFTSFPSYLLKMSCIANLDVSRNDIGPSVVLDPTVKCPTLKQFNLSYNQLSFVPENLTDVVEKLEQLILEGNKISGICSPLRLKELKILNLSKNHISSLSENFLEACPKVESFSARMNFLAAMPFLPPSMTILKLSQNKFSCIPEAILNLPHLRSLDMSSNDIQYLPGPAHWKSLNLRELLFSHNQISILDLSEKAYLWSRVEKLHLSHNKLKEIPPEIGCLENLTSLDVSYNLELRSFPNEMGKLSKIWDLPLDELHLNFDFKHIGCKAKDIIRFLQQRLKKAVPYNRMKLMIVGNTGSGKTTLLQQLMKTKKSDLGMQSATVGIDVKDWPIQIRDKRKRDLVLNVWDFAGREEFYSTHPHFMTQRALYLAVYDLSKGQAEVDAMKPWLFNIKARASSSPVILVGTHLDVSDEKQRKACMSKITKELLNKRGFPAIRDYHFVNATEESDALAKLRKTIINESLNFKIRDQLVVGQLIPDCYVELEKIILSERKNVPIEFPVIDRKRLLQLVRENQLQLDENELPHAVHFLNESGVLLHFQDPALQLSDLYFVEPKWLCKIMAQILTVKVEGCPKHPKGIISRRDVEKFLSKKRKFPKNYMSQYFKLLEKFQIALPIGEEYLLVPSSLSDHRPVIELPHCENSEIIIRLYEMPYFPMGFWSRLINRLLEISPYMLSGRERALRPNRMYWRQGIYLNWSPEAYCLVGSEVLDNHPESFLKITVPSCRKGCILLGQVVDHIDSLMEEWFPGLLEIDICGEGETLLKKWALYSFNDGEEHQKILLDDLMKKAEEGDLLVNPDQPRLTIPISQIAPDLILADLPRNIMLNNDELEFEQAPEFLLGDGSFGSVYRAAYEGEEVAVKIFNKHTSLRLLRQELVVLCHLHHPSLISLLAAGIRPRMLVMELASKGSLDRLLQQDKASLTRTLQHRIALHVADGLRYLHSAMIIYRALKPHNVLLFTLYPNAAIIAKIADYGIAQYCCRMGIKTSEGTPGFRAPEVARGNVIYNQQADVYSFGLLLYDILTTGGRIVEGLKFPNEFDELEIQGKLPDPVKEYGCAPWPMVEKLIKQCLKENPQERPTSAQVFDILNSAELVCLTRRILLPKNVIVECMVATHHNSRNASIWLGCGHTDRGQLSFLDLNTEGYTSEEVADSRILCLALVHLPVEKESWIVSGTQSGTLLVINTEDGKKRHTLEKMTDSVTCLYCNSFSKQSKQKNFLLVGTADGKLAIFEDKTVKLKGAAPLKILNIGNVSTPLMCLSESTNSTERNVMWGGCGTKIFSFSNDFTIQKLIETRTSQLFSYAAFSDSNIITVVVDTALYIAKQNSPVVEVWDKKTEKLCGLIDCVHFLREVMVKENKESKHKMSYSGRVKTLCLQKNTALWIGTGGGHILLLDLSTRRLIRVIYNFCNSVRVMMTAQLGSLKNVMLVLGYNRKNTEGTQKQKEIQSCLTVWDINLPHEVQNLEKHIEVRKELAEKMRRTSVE

T1 sequence (Q5S007 970-2527 G2019S): as the sequence (Q5S007 970-2527 D1994A) above, with A1025D, G1050S counted along it

Binder	binding result [1]	binding result [2]
B1	binds	binds
B2	binds	
B3	binds	
